Tests used:
Experiment in all cases: cell_activity
[1] = test system: Human autoantibodies against angiotensin II AT1 receptor (AT1-receptor AAB) (Homo sapiens); settings: malignant hypertension, 7.83 without aptamer; kidney transplant 6.17 to 0.17; 100 nM
[2] = test system: Human autoantibodies against beta1-adrenergic receptor (beta1-receptor AAB, 1st loop) (Homo sapiens); settings: DCM patient 1, 6.33 without aptamer; 100 nM
[3] = test system: Human autoantibodies against alpha1-adrenergic receptor (alpha1-receptor AAB) (Homo sapiens); settings: pulmonary hypertension patient 2, 5.17 without aptamer; 100 nM
[4] = test system: Human alpha1/beta2-receptor autoantibodies (Alzheimer patient) (Homo sapiens); settings: Alzheimer patient 1, 8.0 without aptamer; 100 nM
[5] = test system: Human autoantibodies against PAR receptor (PAR-receptor AAB) (Homo sapiens); settings: Raynaud patient 1, 7.33 without aptamer; 100 nM
[6] = test system: Human autoantibodies against endothelin receptor type A (ETA-AAB) (Homo sapiens); settings: pulmonary hypertension patient 2, -4.8 without aptamer
[7] = test system: Human autoantibodies against beta1-adrenergic receptor (beta1-receptor AAB, 2nd loop) (Homo sapiens)
[8] = test system: Human autoantibodies against beta2-adrenergic receptor (beta2-receptor AAB) (Homo sapiens); settings: 100 nM
[9] = test system: Human autoantibodies against muscarinic M2 receptor (M2-receptor AAB) (Homo sapiens); settings: -3.67 without aptamer, 100 nM

Sequence: GGTTGGTGTGGTTGG [thrombin-aptamer ARC183]
- activity (delta beats/15 sec) [1]: 0.67
- activity (delta beats/15 sec) [2]: -0.17
- activity (delta beats/15 sec) [3]: 0.33
- activity (delta beats/15 sec) [4]: 0
- activity (delta beats/15 sec) [5]: 0.17
- activity (delta beats/15 sec) ([6]; 100 nM): 0.33
- activity (delta beats/15 sec) ([7]; DCM patient 1, 5.33 without aptamer, 100 nM aptamer, rat cardiomyocyte bioassay): 0.17
- activity (delta beats/15 sec) ([8]; glaucoma patient 1, 7.33 without aptamer): 0.33
- activity (delta beats/15 sec) ([9]; Chagas cardiomyopathy): 0.5

Sequence: GGTTGGTGTGGTTGG [5'-FITC-thrombin-aptamer]
- activity (% neutralization) ([7]; loop not stated, 100 nM FITC-aptamer): 50

Sequence: GGTTGGTGTGGTTGG [3'-dT cap thrombin-aptamer]
- activity (delta beats/15 sec) ([7]; 3'-dT cap, DCM, 6.0 without aptamer, 100 nM): 0
- activity (delta beats/15 sec) ([8]; 3'-dT cap, Alzheimer, 5.17 without aptamer): 0

Sequence: CGCCTAGGTTGGGTAGGGTGGTGGCG [NU172 (ARC2172)]
- activity (delta beats/15 sec) [3]: 2
- activity (delta beats/15 sec) ([6]; sign as printed): 2
- activity (delta beats/15 sec) ([7]; peripartum cardiomyopathy, 6.33 without aptamer, 100 nM, partial): 4
- activity (delta beats/15 sec) ([8]; glaucoma patient 1, 7.33 without aptamer, Chagas megacolon patient 6.17 to 2.0): 5.33
- activity (delta beats/15 sec) ([9]; sign as printed): 3

— US20140155466
